Data on four substances can be found in IntAct's records for PubMed 37020021.

The test addresses T1, ncbp1_human NCBP1 (UniProt Q09161).
T1 sequence: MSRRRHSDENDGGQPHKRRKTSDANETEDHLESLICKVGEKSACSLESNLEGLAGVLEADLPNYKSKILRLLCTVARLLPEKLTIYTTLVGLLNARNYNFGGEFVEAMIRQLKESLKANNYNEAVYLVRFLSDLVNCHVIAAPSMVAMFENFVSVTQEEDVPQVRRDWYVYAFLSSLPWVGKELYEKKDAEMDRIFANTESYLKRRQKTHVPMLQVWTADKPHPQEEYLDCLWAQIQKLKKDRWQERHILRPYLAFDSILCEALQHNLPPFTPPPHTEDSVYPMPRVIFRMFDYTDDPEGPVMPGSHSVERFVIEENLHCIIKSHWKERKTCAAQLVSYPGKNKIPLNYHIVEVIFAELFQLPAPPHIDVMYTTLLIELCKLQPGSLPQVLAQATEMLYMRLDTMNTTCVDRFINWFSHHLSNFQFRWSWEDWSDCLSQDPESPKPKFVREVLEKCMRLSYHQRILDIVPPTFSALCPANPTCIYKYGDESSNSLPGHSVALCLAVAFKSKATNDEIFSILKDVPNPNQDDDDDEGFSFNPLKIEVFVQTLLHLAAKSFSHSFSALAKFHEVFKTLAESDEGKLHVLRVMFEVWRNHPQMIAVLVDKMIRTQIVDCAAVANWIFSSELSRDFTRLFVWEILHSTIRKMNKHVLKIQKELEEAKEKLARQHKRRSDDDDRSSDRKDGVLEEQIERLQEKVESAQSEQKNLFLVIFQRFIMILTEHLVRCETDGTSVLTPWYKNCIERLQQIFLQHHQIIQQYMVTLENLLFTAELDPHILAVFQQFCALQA

As to “THO complex subunit 4 (Homo sapiens) (from UniProt Q86V81) F115S”, the “effect of a mutation on the interaction” value is “decreasing interaction strength”. As to “THO complex subunit 4 (Homo sapiens) (from UniProt Q86V81) Q165E”, the “effect of a mutation on the interaction” value is given as “decreasing interaction strength”. With “THO complex subunit 4 (Homo sapiens) (from UniProt Q86V81) V169A”, the “effect of a mutation on the interaction” value is on record as “decreasing interaction strength”. Consider “THO complex subunit 4 (Homo sapiens) (from UniProt Q86V81) P170A”, for which the “effect of a mutation on the interaction” value is “decreasing interaction strength”.
